From publication PMC10827754, “The crystal structure of SUN1-KASH6 reveals an asymmetric LINC complex architecture compatible with nuclear membrane insertion” (Communications Biology, 2024)
Several values for one entry are separate records, joined by “and”; a condition that tells them apart may be missing. Identical values can stand only once. Values belong to the molecule of their own block, whether it stands above or below them.

What was measured:
[1] = molecular target: SUN domain of human SUN1 (amino-acids 616-812) (human); assay: SEC-MALS; untreated (native) co-purified complex; 8-13 mg/ml loaded on Superdex 200 Increase 10/300 GL in 20 mM Hepes pH 7.5, 150 mM KCl, 2 mM DTT
[2] = molecular target: SUN domain of human SUN1 (amino-acids 616-812) (human); assay: SEC-MALS; co-purified complex treated overnight in 20 mM sodium acetate pH 5.0, 150 mM KCl, 10% glycerol, 2 mM DTT, then analysed in 20 mM Hepes pH 7.5, 150 mM KCl, 2 mM DTT
[3] = molecular target: SUN domain of human SUN1 (amino-acids 616-812) (human); assay: crystal structure; co-expressed and co-purified SUN1-KASH6 at 12 mg/ml; sitting drops, 20 °C; MES pH 6.0 (1.7 Å), Bis Tris pH 5.5 (2.3 Å), sodium citrate pH 5.5 (2.0 Å)
[4] = molecular target: SUN domain of human SUN1 (amino-acids 616-812) (human); assay: SEC-MALS; untreated (native) co-purified complex; 8-13 mg/ml loaded on Superdex 200 Increase 10/300 GL in 20 mM Hepes pH 7.5, 150 mM KCl, 2 mM DTT; remark: listed apart in the source
[5] = molecular target: SUN domain of human SUN1 (amino-acids 616-812) (human); assay: crystal structure; co-expressed and co-purified SUN1-KASH6 at 12 mg/ml; sitting drops, 20 °C; MES pH 6.0 (1.7 Å), Bis Tris pH 5.5 (2.3 Å), sodium citrate pH 5.5 (2.0 Å); remark: listed apart in the source
[6] = molecular target: the molecule itself; assay: as above

Molecule: EDSWTSLEHILWPFTRLRHNGPPPV [KASH6 core (human JAW1/LRMP amino-acids 531-555)]
- stoichiometry N (KASH6 per SUN1) [4]: 1
- percent (by mass) as 6:6 complex [2]: 15 % (by mass)
- percent (by mass) as 9:6 complex [2]: 85 % (by mass)
- stoichiometry N (KASH6 per SUN1) [2]: 0.67

Molecule: EDSWTSLEHILWPFTRLRYNGPPPV [KASH6 core H549Y (human JAW1/LRMP amino-acids 531-555)]
- percent (by mass) as 6:6 complex [2]: 55 % (by mass)
- percent (by mass) as 9:6 complex [2]: 45 % (by mass)
- stoichiometry N (KASH6 per SUN1) [2]: 0.67 and 1

Molecule: EDSWTSLEQILWPFTRLRHNGPPPV [KASH6 core H539Q (human JAW1/LRMP amino-acids 531-555)]
- stoichiometry N (KASH6 per SUN1) [2]: 1

Molecule: EDSWTSLEKILWPFTRLRHNGPPPV [KASH6 core H539K (human JAW1/LRMP amino-acids 531-555)]
- percent (by mass) as 6:6 complex [4]: 40 % (by mass)
- percent (by mass) as 9:6 complex [4]: 60 % (by mass)
- stoichiometry N (KASH6 per SUN1) [4]: 1 and 0.67

More lines, main results first:

- stoichiometry N [1]: 6
- stoichiometry N [2]: 9 and 6
- stoichiometry N [3]: 9
Molecule: SUN domain of human SUN1 (amino-acids 616-812) (domain or fragment)

- stoichiometry N (KASH6 per SUN1) [4]: 1
- stoichiometry N (KASH6 per SUN1) [2]: 0.67 and 1
- stoichiometry N (KASH6 per SUN1) [5]: 0.67
B1: KASH domain of human JAW1/LRMP (KASH6, amino-acids 515-555) (peptide, UniProt Q12912 515-555, looked up)
chain: TGQLFQKSVDAAPTQQEDSWTSLEHILWPFTRLRHNGPPPV
notes: JAW1/LRMP (lymphoid restricted membrane protein), human, KASH domain, amino-acids 515-555; KASH6α, KASH6β and KASH6γ are the same peptide in three conformations or sites of the crystal structure; also called KASH6α; KASH6β; not shown: His6, N-terminal, cleaved; MBP, N-terminal, cleaved
- binding result [6]: binds

- stoichiometry N (KASH6 per SUN1) [2]: 1
Molecule: EDSATSLEHILWPFTRLRHNGPPPV [KASH6 core W534A (human JAW1/LRMP amino-acids 531-555)]
